Test results as given in PMC7616283.

Biological target: human CCR8 (HA-tagged) on stably transfected HEK293 cells (human), P51685
Test: flow cytometry on cells
Details: remark: other sources report otherwise

Sequence of human CCR8 (HA-tagged) on stably transfected HEK293 cells (human), P51685 (P51685 whole entry): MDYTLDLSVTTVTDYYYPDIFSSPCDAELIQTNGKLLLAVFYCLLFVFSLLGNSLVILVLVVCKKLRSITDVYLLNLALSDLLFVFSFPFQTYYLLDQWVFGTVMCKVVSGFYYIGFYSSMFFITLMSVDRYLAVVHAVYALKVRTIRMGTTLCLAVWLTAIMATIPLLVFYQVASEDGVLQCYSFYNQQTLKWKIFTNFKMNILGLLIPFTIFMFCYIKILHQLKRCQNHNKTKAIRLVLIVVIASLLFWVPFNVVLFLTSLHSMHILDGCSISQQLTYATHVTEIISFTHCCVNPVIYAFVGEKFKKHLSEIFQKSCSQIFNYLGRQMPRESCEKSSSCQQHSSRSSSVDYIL

- IC50: 4.1 nM
B1: unlabeled human recombinant CCL18, P55774 21-89 (ligand)
chain: AQVGTNKELCCLVYTSWQIPQKFIVDYSETSPQCPKPGVILLTKRGRQICADPNKKWVQKYISDLKLNA
